Key:
Ml2 = molecular target: T1, Ml2 (Mesorhizobium loti, UniProt A0A1A5JHX8 1-141); experiment: EMSA; settings: protein: recombinant; chain copies: 10
T1 sequence: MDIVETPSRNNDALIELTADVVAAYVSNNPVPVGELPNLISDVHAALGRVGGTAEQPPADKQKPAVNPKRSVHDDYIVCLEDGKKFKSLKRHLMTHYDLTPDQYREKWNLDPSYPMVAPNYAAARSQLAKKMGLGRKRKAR

MucR = MucR (Brucella abortus 2308, UniProt Q2YMR3 1-142); experiment: EMSA; settings: protein: recombinant; chain copies: 10; blunt

B1: Exoy43bp (dsDNA)
DNA 1: CCACTGAAATAGTCGCGTCATGAATTGACTAAATAATAAGCTA
DNA 2: TAGCTTATTATTTAGTCAATTCATGACGCGACTATTTCAGTGG
- binding result (Ml2): binds
- binding result (MucR): binds

B2: Core1 (dsDNA)
DNA 1: GGCGCCGAAATAGCGGAGCG
DNA 2: CGCTCCGCTATTTCGGCGCC
- binding result (Ml2): binds

B3: Core2mut (dsDNA)
DNA 1: GGCGCCGAAAAAACGGAGCG
DNA 2: CGCTCCGTTTTTTCGGCGCC
- binding result (Ml2): no binding

B4: Seq3.2 (dsDNA)
DNA 1: ATTGACTAAAGCCGAAGCTA
DNA 2: TAGCTTCGGCTTTAGTCAAT
- binding result (Ml2): no binding
- binding result (MucR): no binding

B5: Seq1.1 (dsDNA)
DNA 1: CCACGTCCCTAGTCGCGTCA
DNA 2: TGACGCGACTAGGGACGTGG
- binding result (Ml2): no binding
- binding result (MucR): no binding

B6: Core4mut (dsDNA)
DNA 1: GCGAAAAAAAAAATTTTGCC
DNA 2: GGCAAAATTTTTTTTTTCGC
- binding result (Ml2): no binding

B7: Core5 (dsDNA)
DNA 1: GGCGCCGATATATCGGAGCG
DNA 2: CGCTCCGATATATCGGCGCC
- binding result (Ml2): binds

B8: Core2 (dsDNA)
DNA 1: GGCGCCGAAATAACGGAGCG
DNA 2: CGCTCCGTTATTTCGGCGCC
- binding result (Ml2): binds

B9: Core3 (dsDNA)
DNA 1: GGCGCCGAAATACCGGAGCG
DNA 2: CGCTCCGGTATTTCGGCGCC
- binding result (Ml2): binds

B10: Seq3.1 (dsDNA)
DNA 1: ATTGACGCCCTAATAAGCTA
DNA 2: TAGCTTATTAGGGCGTCAAT
- binding result (Ml2): no binding
- binding result (MucR): no binding

B11: Core4 (dsDNA)
DNA 1: GCGAAAAAAATAATTTTGCC
DNA 2: GGCAAAATTATTTTTTTCGC
- binding result (Ml2): binds

B12: Seq1.2 (dsDNA)
DNA 1: CCACTGACCGCGTCGCGTCA
DNA 2: TGACGCGACGCGGTCAGTGG
- binding result (Ml2): no binding
- binding result (MucR): no binding

Source: publication PMC5693944, “Ml proteins from Mesorhizobium loti and MucR from Brucella abortus: an AT-rich core DNA-target site and oligomerization ability”
